Measurements as given in PMC7527721, “Beyond Toxin Transport: Novel Role of ABC Transporter for Enzymatic Machinery of Cereulide NRPS Assembly Line” (mBio, 2020).

T1: CesD, transmembrane protein of the ABC transporter CesCD (BACTH fusion) (Bacillus cereus F4810/72, UniProt Q20CI6 1-268)
T1 construct: CesD, transmembrane protein of the ABC transporter CesCD, B. cereus F4810/72, NCBI ABK00530.1; also called T25-CesD; source: bacterial two-hybrid (BACTH) fusion, E. coli BTH101; not shown: T18 or T25 fragment of B. pertussis adenylate cyclase (several combinations tested), N-terminal or C-terminal, kept
T1 sequence: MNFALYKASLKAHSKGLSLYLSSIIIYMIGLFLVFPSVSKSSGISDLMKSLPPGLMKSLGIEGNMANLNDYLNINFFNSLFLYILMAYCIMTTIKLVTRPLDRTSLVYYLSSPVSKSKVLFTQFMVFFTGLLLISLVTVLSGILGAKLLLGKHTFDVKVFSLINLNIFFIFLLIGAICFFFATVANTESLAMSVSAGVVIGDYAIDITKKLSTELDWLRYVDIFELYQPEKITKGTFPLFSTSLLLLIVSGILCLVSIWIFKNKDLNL


Assays:
[1] = target: C-terminal condensation domain C* of CesA (BACTH fusion) (Bacillus cereus F4810/72) (UniProt Q20CI9); assay: two-hybrid; BACTH in E. coli BTH101, β-galactosidase activity (Miller assay, ONPG, 28°C) of cells from LB-IPTG plates, normalized to the negative control (T18 and T25 alone)
[2] = target: T1, CesD, transmembrane protein of the ABC …; assay: as above; conditions: partners not purified

Molecule	decrease in β-galactosidase activity against wild-type CesC [1]	β-galactosidase activity, fold of the negative control [2]
CesC K40M (BACTH fusion) (from UniProt Q20CI7 1-291) (natural protein)	30%	–
CesC, ATPase of the ABC transporter CesCD (BACTH fusion) (natural protein, also called T18-CesC; CesC-T18; source: bacterial two-hybrid (BACTH) fusion, E. coli BTH101; not shown: T18 or T25 fragment of B. pertussis adenylate cyclase (several combinations tested), N-terminal or C-terminal, kept) MIKIEGLTKEFGNGKGIFDVTFEVKQGEVFGFLGPNGAGKSTTIRHLMGFIKPSKGAATINGFDCWKEADQVKKRVGYLPGEIAFPEEMTAYDFIRLIAGMKGMSDLGRAEEFIEKFQLDMRVHIKKMSKGMKQKLAIVAAFLHDPDILILDEPSTGLDPLMQNILVDFILEEKKCGKTILISSHIFDEIKDTADTICIIKNGKIVESGDLKTLKSAQKRYLKAYFTQEVDVELLQRSNLQIEKVENLVATILIQQNINEIMRELMKYDLINVEIMEPEIKDIFIKHYENR	–	~20 fold
